{
  "source": "paper PMC10529453",
  "about": "(Cell reports, 2023)",
  "binders": {"B1": {"name": "Rad17 (natural protein, S. cerevisiae)", "chain": "MRINSELANKFSASTVHLEHITTALSCLTPFGSKDDVLIFIDADGLSFVRENNHVIKIQLLLSRELFMSYSYRNETEDHMKLCVKINHILDSVSVMNRNSDDIVECTLSYDGHGSPFVLIFEDSFISERVEYSTYLIKDFDTNGLELDRERISFEAIIKGEALHSALKDLKEIGCKECYVYAKTEANDENVFALISKSQLGFSKIKLPSNRSILEKLQVFDGDSTTVIDGFAVIGFFDFTSFDKIRKSTKIASKVLFRMDVHGVLSVNILSQTDDVIITDTTRPSNNRPGSIRQLQLPKDYPGIVIEVCMLEKESIDEAAQTEIELLMETNELGNRNSFKKSTIRKRYGTDKGNETSNDNLLQLNGKKIKLPSEEENNKNRESEDEENHCKYPTKDIPIFF"}, "B2": {"name": "Mec3 (natural protein, S. cerevisiae, UniProt Q02574 1-474, looked up)", "chain": "MKLKLIVNGCEAPDDYKLLRTTINTVASLRKTAILRFNSERLTIISTPKSSLNSSNNGTILRGDTGQLWCTIPHDVFRLYTVISARELNTITMECNCDSLLSVFKRYDRVMNQGSSSNMTIKLQSMPEWNTNNGTLSGGTAGGVDTTSKPNPICALGITFEEIVHTSGPNDAIVMNGGVDEHNGLPTTVGTGNLLASNKVIMHSFKVPVKLLFRAQDTRIQEPMINYIQLMMYKLPPISGEFGSAFHGFIRRVERYSNVNHIHLMGVKKKEHGNEGDDVELKIIVNELDWHLEICWNGPLDSVIQRQEGLTDNPSQNQHIDTDGRQEEGSLPIIEADKPMSSLYTNTRDREMEENIRYDEDLLRIEDSSIADTRGNIYTADTSGDTEFNDISVMVEKAEQESSSTHEVIIRCKDWKVCSKLYAAFEEVVLAISHDESCVFHCSLDRGSLEDSEDVEKPRERGQIIYYIARSKGL"}, "B3": {"name": "10-nt gapped DNA (cryo-EM) (mixed)", "DNA 1": "CGGTATAGGCGATACGAATCTTTTTTTTTTCCGTATAGCCGTAGCGAGCC", "DNA 2": "GGCTCGCTACGGCTATACGG", "DNA 3": "GATTCGTATCGCCTATACCG"}, "B4": {"name": "5-nt gapped DNA (cryo-EM) (mixed)", "DNA 1": "CGGTATAGGCGATACGAATCTTTTTCCGTATAGCCGTAGCGAGCC", "DNA 2": "GGCTCGCTACGGCTATACGG", "DNA 3": "GATTCGTATCGCCTATACCG"}, "B5": {"name": "10-nt gap DNA (loading) (mixed)", "DNA 1": "CGGTATAGGCGATACGAATCTTTTTTTTTTCCGTATAGCCGTAGCGAGCCCGACCATACC", "DNA 2": "GGTATGGTCGGGCTCGCTACGGCTATACGG", "DNA 3": "GATTCGTATCGCCTATACCG", "modifications": "5' phosphate on primer 2"}},
  "key": {"Mec3": {"biological_target": "B2", "assay": "cryo-EM structure"}, "Ddc1": {"biological_target": "T1, Ddc1 (S. cerevisiae, UniProt Q08949 1-612)", "T1 sequence": "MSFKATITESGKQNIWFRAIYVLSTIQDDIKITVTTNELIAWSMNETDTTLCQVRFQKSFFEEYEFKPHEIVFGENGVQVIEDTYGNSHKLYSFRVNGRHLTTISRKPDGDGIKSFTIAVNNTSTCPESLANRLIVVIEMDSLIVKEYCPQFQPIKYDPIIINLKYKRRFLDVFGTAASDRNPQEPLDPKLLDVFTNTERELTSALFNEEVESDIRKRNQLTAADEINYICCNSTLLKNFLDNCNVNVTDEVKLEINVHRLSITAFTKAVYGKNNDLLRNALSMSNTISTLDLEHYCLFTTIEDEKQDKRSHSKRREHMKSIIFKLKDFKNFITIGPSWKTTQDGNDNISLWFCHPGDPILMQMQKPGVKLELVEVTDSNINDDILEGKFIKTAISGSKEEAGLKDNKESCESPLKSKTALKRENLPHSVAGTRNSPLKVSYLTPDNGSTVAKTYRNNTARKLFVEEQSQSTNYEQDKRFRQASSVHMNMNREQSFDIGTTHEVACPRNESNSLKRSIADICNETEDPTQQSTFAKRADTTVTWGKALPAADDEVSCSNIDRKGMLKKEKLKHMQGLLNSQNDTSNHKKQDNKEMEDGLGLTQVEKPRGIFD", "assay": "cryo-EM structure"}, "[1]": {"biological_target": "T2, Rad24-RFC clamp loader;9-1-1 checkpoint clamp (Saccharomyces cerevisiae;Saccharomyces …, UniProt P32641;P40339;P38629;P40348;P38251;Q08949;Q02574;P48581 …, |)", "assay": "cryo-EM"}, "[2]": {"biological_target": "T2, Rad24-RFC clamp loader;9-1-1 checkpoint …", "assay": "cryo-EM", "remark": "listed apart in the source"}, "[3]": {"biological_target": "Rad24-RFC clamp loader;32P-9-1-1 checkpoint clamp (Saccharomyces cerevisiae;Saccharomyces …, UniProt P32641;P40339;P38629;P40348;P38251;Q08949;Q02574;P48581 …, |)", "assay": "magnetic bead clamp loading"}},
  "note": "Where two headings read alike, the source gives them in different places.",
  "data": [
    {"binder": "B1", "values": [
      {"measurement": "binding result", "setting": "Mec3", "result": "binds"}
    ]},
    {"binder": "B2", "values": [
      {"measurement": "binding result", "setting": "Ddc1", "result": "binds"}
    ]},
    {"binder": "B3", "values": [
      {"measurement": "binding result", "setting": "[1]", "result": "binds"}
    ]},
    {"binder": "B4", "values": [
      {"measurement": "binding result", "setting": "[2]", "result": "binds"}
    ]},
    {"binder": "B5", "values": [
      {"measurement": "binding result", "setting": "[3]", "result": "binds"}
    ]}
  ]
}
